Results reported in patent US20230174617A1 (PROGEN, published 2023).
One block for each binder: values may come before it.

Tests used:
[1] = biological target: T1, IL-10 receptor 1 (IL-10R1), IL-10R His-tag protein (UniProt Q13651 22-235, limits assumed); test: BLI (Octet K2), IL-10R His-tag protein on AR2G sensor, fusion protein 62.5 to 1,000 nM
T1 construct: not shown: His tag
T1 sequence (looked up): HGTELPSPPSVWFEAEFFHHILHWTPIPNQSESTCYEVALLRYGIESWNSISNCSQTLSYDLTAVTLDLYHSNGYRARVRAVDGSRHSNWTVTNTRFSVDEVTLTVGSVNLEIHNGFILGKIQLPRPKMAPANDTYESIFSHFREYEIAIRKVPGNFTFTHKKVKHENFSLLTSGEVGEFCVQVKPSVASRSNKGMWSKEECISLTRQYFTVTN
Description: (§1) For the analysis, the present inventors attached an IL-10R His-tag protein to a 96-well plate using a Dip and Read™ Amine Reactive 2nd Generation (AR2G) Reagent Kit (forteBio, Cat No. 18-5092). Specifically, 200 μl of D. W. was dispensed into a 96-well plate, and an amine biosensor included in the kit was inserted to perform hydration for 10 minutes. Subsequently, after 200 μl of D. W. was additionally dispensed into a new 96-well plate, EDC and NHS were mixed at 1:1 in an amount of 1/20 of the required sample amount and then diluted with D. W., and 200 μl of the resultant was dispensed into the 96-well plates. Next, the IL-10R His-tag protein was diluted to 10 μg/ml in a 10 mM acetate solution having a pH of 5.0, and then 200 μl of the resultant was added to the 96-well plates. After 200 μl of 1 M ethanolamine was added to the 96-well plates, the biosensor plate and the sample plate were placed in an Octet®-K2 instrument and measured. After the measurement was completed, 200 μl of a 1× kinetics buffer solution was added to the sample plate, and then a baseline was determined.

[2] = biological target: T1, IL-10 receptor 1 (IL-10R1), IL-10R …; test: BLI (Octet K2), IL-10R His-tag protein on AR2G sensor
Description: as §1

FcγRIIa = biological target: T2, FcγRIIa (UniProt P12318 36-218, limits assumed); test: BLI, single trace with fit; PBS panel as control
T2 sequence (looked up): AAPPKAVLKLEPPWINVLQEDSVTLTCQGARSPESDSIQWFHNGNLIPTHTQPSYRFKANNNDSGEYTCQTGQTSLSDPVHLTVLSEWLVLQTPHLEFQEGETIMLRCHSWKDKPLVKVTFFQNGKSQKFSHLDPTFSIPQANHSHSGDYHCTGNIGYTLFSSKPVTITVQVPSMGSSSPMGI

FcγRIIb = biological target: T3, FcγRIIb (UniProt P31994 46-217, limits assumed); test: BLI, single trace with fit; PBS panel as control
T3 sequence (looked up): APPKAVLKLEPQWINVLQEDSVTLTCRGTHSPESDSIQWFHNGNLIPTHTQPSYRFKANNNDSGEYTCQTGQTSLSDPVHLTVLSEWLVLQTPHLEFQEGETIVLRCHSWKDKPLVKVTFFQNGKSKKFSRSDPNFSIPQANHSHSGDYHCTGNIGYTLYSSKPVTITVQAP

FcγRIIIb = FcγRIIIb (UniProt O75015 17-200, limits assumed); test: BLI, single trace with fit; PBS panel as control
[3] = biological target: T4, recombinant human neonatal Fc receptor (rhFcRn, R&D systems) (human, UniProt P55899 24-297; P61769 21-119); test: SPR (Biacore 8K), rhFcRn amine-coupled on CM5, analyte in PBST pH 6.0, steady state affinity
T4 construct: Bought reagent; also called recombinant FcRn
Description: (§2) As the analyzer, Biocore 8K (GE Healthcare, USA) was used, and all reagents used in the analysis were purchased from GE Healthcare. […] The experiment was performed at a flow rate of 30 μl/min at 25° C., an association of an analyte was performed for 60 seconds, and then dissociation was performed for 60 seconds. […] At this time, the buffer solution was replaced with a PBS buffer solution having a pH of 7.4 during regeneration.

[4] = biological target: T5, Fc gamma receptor IIIa (FcγRIIIa) (UniProt P08637 17-208, limits assumed); test: BLI; concentrations and the immobilised partner are not given
T5 construct: also called FcγR3a

[5] = biological target: T6, Fc gamma receptor I (FcγRI) (UniProt P12314 16-288, limits assumed); test: as above
T6 construct: also called FcγR1

complement C1q = biological target: T7, complement C1q (UniProt P02745 23-245; P02746 28-253; P02747 29-245); test: ELISA, PG-11 coated at 2 µg/ml, C1q in varied concentration, OD 450 nm
T7 construct: the method text names a C1q-HRP conjugate; also called C1q-HRP conjugate
Description: Subsequently, 100 μl of each diluted sample was loaded into each well and reacted overnight at 4° C. Next, washing was performed three times by adding 300 μl of a washing buffer solution to the plate each time, 200 μl of a blocking buffer solution (2% BSA/PBS) was added to each well and reacted at room temperature for 2 hours. 300 μl of the washing buffer solution was added to the plate, then washing was repeatedly performed three times, an anti-C1q antibody was diluted with an assay buffer solution to 10, 3, 1, 0.3, and 0.1 μg/ml by ⅓, and mixed (duplication) in an amount of 50 μl in each well, and then the resultant was reacted at room temperature for 2 hours. Then, the washing buffer solution was mixed in the plate by 300 μl each time and washing was repeatedly performed eight times. A C1q-HRP conjugate was diluted 400-fold, and 50 μl of the resultant was added to each well and reacted at room temperature for 1 hour. The washing buffer solution was added to the plate by 300 μl each time, washing was repeatedly performed eight times, 50 μl of TMB as a substrate was mixed, and the resultant was reacted at room temperature. When the color development reaction appeared in blue, 50 μl of a stop solution was added to each well to stop the reaction, and then optical density was measured using a microplate reader set at 450 nm.

[6] = biological target: T4, recombinant human neonatal Fc receptor …; test: SPR, steady state affinity, rhFcRn on chip, pH 6.0
Description: as §2
(§3) During the regeneration, a PBS buffer solution having a pH of 7.4 was used.

[7] = biological target: T4, recombinant human neonatal Fc receptor …; test: SPR, rhFcRn on CM5, analyte in PBST pH 6.0, steady state affinity
Excerpt: as §3

[8] = biological target: anti-DNP mouse IgE (Sigma); test: BLI (Octet K2), fusion protein on AR2G sensor, anti-DNP mouse IgE as analyte, first test
Description: (§4) Specifically, 200 μl of D. W. was dispensed into a 96-well plate, and then an amine biosensor included in the kit was inserted to perform hydration for 10 minutes. Subsequently, after 200 μl of D. W. was additionally dispensed, EDC and NHS were mixed at 1:1 in an amount of 1/20 of the required sample amount and then diluted with D. W., and 200 μl of the resultant was dispensed into the 96-well plate. Next, the FcεRIα-modified IgG4 Fc protein and the FcεRIα-NTIG-IL-10Vm fusion protein were diluted to 10 μg/ml in a 10 mM acetate solution having a pH of 5.0, and then 200 μl of the resultant was added to the 96-well plate. After 200 μl of 1 M ethanolamine was added to the 96-well plate, the biosensor plate and the sample plate were placed in an Octet®-K2 instrument and measured. After the measurement was completed, 200 μl of a 1× kinetics buffer solution was added to the sample plate, and then a baseline was determined.

human IgE = test: BLI (Octet K2), fusion protein on AR2G sensor, human IgE as analyte
[9] = biological target: anti-DNP mouse IgE (Sigma); test: BLI (Octet K2), fusion protein on AR2G sensor, anti-DNP mouse IgE as analyte, mean of three tests
Description: as §4

[10] = biological target: anti-DNP mouse IgE (Sigma); test: BLI (Octet K2), fusion protein on sensor, anti-DNP mouse IgE as analyte, third test
Description: as §4

[11] = biological target: anti-DNP mouse IgE (Sigma); test: BLI (Octet K2), fusion protein on AR2G sensor, anti-DNP mouse IgE as analyte, third test
Description: as §4

[12] = biological target: anti-DNP mouse IgE (Sigma); test: cell-based or functional assay
[13] = biological target: anti-DNP mouse IgE (Sigma); test: BLI (Octet K2), fusion protein on sensor, anti-DNP mouse IgE as analyte, second test
Description: as §4

[14] = biological target: anti-DNP mouse IgE (Sigma); test: BLI (Octet K2), fusion protein on AR2G sensor, anti-DNP mouse IgE as analyte, second test
Description: as §4

[15] = biological target: anti-DNP mouse IgE (Sigma); test: BLI (Octet K2), fusion protein on sensor, anti-DNP mouse IgE as analyte, first test
Description: as §4

T7 sequence (P02745 23-245 limits assumed, chain 1 of 3): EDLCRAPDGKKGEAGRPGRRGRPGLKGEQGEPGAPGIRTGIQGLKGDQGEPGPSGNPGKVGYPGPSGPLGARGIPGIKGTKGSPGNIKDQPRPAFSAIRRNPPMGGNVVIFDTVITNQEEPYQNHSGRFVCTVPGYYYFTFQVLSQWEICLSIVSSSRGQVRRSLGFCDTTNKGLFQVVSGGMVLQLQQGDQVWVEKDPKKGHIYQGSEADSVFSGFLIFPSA
T7 sequence (P02746 28-253 limits assumed, chain 2 of 3): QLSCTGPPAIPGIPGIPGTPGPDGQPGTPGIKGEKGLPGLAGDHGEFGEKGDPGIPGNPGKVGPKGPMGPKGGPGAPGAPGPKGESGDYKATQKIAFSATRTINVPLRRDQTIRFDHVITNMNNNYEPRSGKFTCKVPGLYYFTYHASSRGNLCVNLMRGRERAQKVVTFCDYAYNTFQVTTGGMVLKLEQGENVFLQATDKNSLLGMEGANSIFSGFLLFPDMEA
T7 sequence (P02747 29-245 limits assumed, chain 3 of 3): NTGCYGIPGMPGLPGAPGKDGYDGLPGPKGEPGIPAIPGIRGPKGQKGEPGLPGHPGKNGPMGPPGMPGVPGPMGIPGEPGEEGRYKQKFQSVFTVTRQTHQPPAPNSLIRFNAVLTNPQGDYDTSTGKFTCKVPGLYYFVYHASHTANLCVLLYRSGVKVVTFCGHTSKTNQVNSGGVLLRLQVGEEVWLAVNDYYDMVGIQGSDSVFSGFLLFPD
Chain of FcγRIIIb (O75015 17-200 limits assumed): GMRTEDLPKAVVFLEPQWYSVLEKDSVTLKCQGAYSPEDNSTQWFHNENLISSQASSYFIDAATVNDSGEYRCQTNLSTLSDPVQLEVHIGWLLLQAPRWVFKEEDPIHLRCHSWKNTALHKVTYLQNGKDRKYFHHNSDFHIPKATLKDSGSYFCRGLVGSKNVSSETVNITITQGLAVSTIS
T5 sequence (P08637 17-208 limits assumed): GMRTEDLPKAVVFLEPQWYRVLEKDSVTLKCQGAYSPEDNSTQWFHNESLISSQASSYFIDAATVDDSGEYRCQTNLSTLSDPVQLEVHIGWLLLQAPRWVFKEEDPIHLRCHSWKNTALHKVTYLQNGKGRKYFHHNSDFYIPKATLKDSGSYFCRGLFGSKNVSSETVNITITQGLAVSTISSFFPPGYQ
T6 sequence (P12314 16-288 limits assumed): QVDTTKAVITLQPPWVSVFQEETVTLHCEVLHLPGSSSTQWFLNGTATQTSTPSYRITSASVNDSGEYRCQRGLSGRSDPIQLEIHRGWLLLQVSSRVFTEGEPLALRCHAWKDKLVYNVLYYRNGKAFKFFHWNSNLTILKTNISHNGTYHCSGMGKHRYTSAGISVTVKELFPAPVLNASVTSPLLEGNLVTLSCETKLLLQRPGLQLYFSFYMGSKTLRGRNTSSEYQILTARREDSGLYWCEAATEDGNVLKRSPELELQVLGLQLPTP

Kd [1]: 29.2 nM
fold KD against the dimeric IL-10 fusion protein of Example 2-3 [2]: ~3 fold
koff [2]: 0.0006 s⁻¹
kon [2]: 20600 M⁻¹ s⁻¹
B1: PG-088m (NTIG-IL-10Vm) (Fc fusion)
chain: SHTQPLGVFLFPPKPKDQLMISRTPEVTCVVVDVSQEDPEVQFNWYVDGVEVHNAKTKPREEQFNSTYRVVSVLTVLHQDWLNGKEYKCKVSNKGLPSSIEKTISKAKGQPREPQVYTLPPSQEEMTKNQVSLTCLVKGFYPSDIAVEWESNGQPENNYKTTPPVLDSDGSFFLYSRLTVDKSRWQEGNVFSCSVLHEALHNHYTQKSLSLSLGAAGSGGGGGSGGGGSGGGGSSPGQGTQSENSCTHFPGNLPNMLRDLRDAFSRVKTFFQMKDQLDNLLLKESLLEDFKGYLGCQALSEMIQFYLEEVMPQAENQDPDAKAHVNSLGENLKTLRLRLRRCHRFLPCENGGSGGSGGSKSKAVEQVKNAFNKLQEKGIYKAMSEFDIFINYIEAYMTMKIRN
notes: also called monomeric IL-10 variant fusion protein

Kd [1]: 11.1 nM
koff [2]: 0.0008 s⁻¹
kon [2]: 71100 M⁻¹ s⁻¹
B2: PG-088 (NTIG-IL-10V) (Fc fusion)
chain: GGGGSGGGGSGGGGSEPKSSDKTHTCPPCPSHTQPLGVFLFPPKPKDQLMISRTPEVTCVVVDVSQEDPEVQFNWYVDGVEVHNAKTKPREEQFNSTYRVVSVLTVLHQDWLNGKEYKCKVSNKGLPSSIEKTISKAKGQPREPQVYTLPPSQEEMTKNQVSLTCLVKGFYPSDIAVEWESNGQPENNYKTTPPVLDSDGSFFLYSRLTVDKSRWQEGNVFSCSVLHEALHNHYTQKSLSLSLGKAAGSGGGGGSGGGGSGGGGSSPGQGTQSENSCTHFPGNLPNMLRDLRDAFSRVKTFFQMKDQLDNLLLKESLLEDFKGYLGCQALSEMIQFYLEEVMPQAENQDPDAKAHVNSLGENLKTLRLRLRRCHRFLPCENKSKAVEQVKNAFNKLQEKGIYKAMSEFDIFINYIEAYMTMKIRN
notes: also called dimeric IL-10 variant fusion protein

binding result (FcγRIIa): no binding
binding result (FcγRIIb): no binding
binding result (FcγRIIIb): no binding
Kd [3]: 397 nM
binding result [4]: no binding
binding result [5]: no binding
binding result (complement C1q): no binding (tested: 10.0 µg/mL)
fold affinity against Rituximab [6]: ~9.3 fold
fold affinity against Trulicity [6]: ~5.3 fold
Kd [7]: 256 nM
B3: PG-11 (GLP-1E-NTIG) (Fc fusion)
chain: HGEGTFTSDVSSYLEGQAAKEFIAWLVKGGPSSGAPPPSGGGGSGGGGSGGGGSEKEKEEQEERTHTCPPCPSHTQPLGVFLFPPKPKDQLMISRTPEVTCVVVDVSQEDPEVQFNWYVDGVEVHNAKTKPREEQFNSTYRVVSVLTVLHQDWLNGKEYKCKVSNKGLPSSIEKTISKAKGQPREPQVYTLPPSQEEMTKNQVSLTCLVKGFYPSDIAVEWESNGQPENNYKTTPPVLDSDGSFFLYSRLTVDKSRWQEGNVFSCSVLHEALHNHYTQKSLSLSLGK
notes: Produced in ExpiCHO and purified on protein A. The hinge is said in general to dimerise the fusion, but no copy number is stated for PG-11; also called PG-II

Kd [8]: 0.224 nM
Kd (human IgE): 0.346 nM
koff (human IgE): 7.59e-05 s⁻¹
kon (human IgE): 219000 M⁻¹ s⁻¹
Kd [9]: 0.284 nM
koff [10]: 4.82e-05 s⁻¹
kon [10]: 139000 M⁻¹ s⁻¹
Kd [11]: 0.346 nM
IC50 (nM), β-hexosaminidase release from mouse marrow-derived mast cells, column headed 'Fourth test' (equals the mean of the three tests) [12]: 16.9 nM
IC50 (nM), β-hexosaminidase release from mouse marrow-derived mast cells, first test [12]: 21.6 nM
IC50 (nM), β-hexosaminidase release from mouse marrow-derived mast cells, second test [12]: 14.8 nM
IC50 (nM), β-hexosaminidase release from mouse marrow-derived mast cells, third test [12]: 14.4 nM
koff [13]: 4.06e-05 s⁻¹
kon [13]: 144000 M⁻¹ s⁻¹
Kd [14]: 0.282 nM
koff [15]: 3.4e-05 s⁻¹
kon [15]: 152000 M⁻¹ s⁻¹
B4: PG-110 (FcεRIα-NTIG-IL-10Vm) (Fc fusion)
chain: VPQKPKVSLNPPWNRIFKGENVTLTCNGNNFFEVSSTKWFHNGSLSEETNSSLNIVNAKFEDSGEYKCQHQQVNESEPVYLEVFSDWLLLQASAEVVMEGQPLFLRCHGWRNWDVYKVIYYKDGEALKYWYENHNISITNATVEDSGTYYCTGKVWQLDYESEPLNITVIKAPREKYWLQGGGGSGGGGSGGGGSEPKSSDKTHTCPPCPSHTQPLGVFLFPPKPKDQLMISRTPEVTCVVVDVSQEDPEVQFNWYVDGVEVHNAKTKPREEQFNSTYRVVSVLTVLHQDWLNGKEYKCKVSNKGLPSSIEKTISKAKGQPREPQVYTLPPSQEEMTKNQVSLTCLVKGFYPSDIAVEWESNGQPENNYKTTPPVLDSDGSFFLYSRLTVDKSRWQEGNVFSCSVLHEALHNHYTQKSLSLSLGAAGSGGGGGSGGGGSGGGGSSPGQGTQSENSCTHFPGNLPNMLRDLRDAFSRVKTFFQMKDQLDNLLLKESLLEDFKGYLGCQALSEMIQFYLEEVMPQAENQDPDAKAHVNSLGENLKTLRLRLRRCHRFLPCENGGSGGSGGSKSKAVEQVKNAFNKLQEKGIYKAMSEFDIFINYIEAYMTMKIRN
notes: Produced in a CHO DG44 cell line
